T1: rhesus CD11a (rhesus) (UniProt H9Z8N3)
T1 sequence: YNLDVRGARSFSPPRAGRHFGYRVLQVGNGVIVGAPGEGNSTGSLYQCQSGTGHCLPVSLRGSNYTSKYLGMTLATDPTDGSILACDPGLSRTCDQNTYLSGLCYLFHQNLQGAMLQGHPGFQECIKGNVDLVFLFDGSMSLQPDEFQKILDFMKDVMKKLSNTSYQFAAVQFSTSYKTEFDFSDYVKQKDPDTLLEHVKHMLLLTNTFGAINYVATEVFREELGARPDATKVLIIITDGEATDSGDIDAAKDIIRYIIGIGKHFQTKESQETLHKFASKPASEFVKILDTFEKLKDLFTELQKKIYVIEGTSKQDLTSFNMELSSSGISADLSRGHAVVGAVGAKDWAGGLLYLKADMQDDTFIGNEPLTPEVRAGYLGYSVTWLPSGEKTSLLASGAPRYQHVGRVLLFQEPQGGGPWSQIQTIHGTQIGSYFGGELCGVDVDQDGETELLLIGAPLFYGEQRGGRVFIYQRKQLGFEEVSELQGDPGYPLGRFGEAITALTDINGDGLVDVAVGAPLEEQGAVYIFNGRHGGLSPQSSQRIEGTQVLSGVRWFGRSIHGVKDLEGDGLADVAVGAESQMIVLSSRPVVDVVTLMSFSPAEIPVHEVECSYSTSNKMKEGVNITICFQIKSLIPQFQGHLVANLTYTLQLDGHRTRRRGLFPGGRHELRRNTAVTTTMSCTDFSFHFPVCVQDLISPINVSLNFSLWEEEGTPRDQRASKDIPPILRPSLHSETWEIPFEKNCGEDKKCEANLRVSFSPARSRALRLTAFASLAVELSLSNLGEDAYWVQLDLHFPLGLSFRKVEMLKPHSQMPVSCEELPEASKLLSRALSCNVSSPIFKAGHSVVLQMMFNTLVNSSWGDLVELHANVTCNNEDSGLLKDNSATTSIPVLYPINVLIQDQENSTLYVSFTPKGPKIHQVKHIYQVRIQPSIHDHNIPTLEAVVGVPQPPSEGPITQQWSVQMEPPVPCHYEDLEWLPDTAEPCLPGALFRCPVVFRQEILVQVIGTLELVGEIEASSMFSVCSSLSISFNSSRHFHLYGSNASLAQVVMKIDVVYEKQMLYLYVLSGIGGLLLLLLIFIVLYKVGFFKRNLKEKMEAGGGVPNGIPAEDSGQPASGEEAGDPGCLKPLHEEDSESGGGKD

T2: human CD11a (human) (UniProt P20701)
T2 sequence (looked up): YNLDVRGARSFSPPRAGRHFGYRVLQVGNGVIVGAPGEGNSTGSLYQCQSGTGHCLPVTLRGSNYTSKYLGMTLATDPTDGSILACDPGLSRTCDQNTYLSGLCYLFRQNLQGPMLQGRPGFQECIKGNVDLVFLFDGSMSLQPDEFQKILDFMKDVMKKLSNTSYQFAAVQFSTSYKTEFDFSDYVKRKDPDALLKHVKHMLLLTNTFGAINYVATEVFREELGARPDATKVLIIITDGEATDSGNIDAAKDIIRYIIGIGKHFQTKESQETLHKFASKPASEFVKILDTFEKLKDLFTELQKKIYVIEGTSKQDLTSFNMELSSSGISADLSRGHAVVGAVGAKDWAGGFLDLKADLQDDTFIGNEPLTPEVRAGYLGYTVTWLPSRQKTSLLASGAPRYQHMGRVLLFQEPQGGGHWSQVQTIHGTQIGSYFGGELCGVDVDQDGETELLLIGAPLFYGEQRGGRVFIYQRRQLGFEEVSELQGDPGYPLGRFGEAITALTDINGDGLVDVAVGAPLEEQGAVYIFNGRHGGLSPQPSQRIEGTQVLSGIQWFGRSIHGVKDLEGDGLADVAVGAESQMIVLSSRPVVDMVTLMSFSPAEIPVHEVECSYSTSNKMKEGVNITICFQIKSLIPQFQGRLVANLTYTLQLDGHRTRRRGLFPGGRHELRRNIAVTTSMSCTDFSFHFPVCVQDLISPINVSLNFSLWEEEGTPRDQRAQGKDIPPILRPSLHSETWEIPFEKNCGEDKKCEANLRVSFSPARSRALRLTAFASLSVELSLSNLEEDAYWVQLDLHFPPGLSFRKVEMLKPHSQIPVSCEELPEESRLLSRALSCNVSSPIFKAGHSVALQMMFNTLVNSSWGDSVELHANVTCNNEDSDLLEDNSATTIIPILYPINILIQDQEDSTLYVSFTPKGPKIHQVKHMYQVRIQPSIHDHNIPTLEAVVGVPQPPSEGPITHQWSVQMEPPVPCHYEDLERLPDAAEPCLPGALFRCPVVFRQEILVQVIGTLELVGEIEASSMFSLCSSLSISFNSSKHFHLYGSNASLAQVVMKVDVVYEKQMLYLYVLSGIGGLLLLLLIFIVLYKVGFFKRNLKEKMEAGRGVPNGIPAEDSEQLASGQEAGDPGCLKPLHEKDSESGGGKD


How the values were obtained:
rhesus CD11a (rhesus) = biological target: T1, rhesus CD11a (rhesus); test: binding to rhesus peripheral blood lymphocytes
human CD11a (human) = biological target: T2, human CD11a (human); test: FACScan, Jurkat cells

| Var.EC50/HuIgG1 EC50 (rhesus CD11a (rhesus)) | Var.EC50/HuIgG1 EC50 (human CD11a (human)) | Variant EC50/HulgG1 EC50 (rhesus CD11a (rhesus)) | Binder |
| --- | --- | --- | --- |
| 1 | 1.3 | – | L1 variant IgG1 (antibody, V domains shown) VH: EVQLVESGGGLVQPGGSLRLSCAASGYSFTGHWMNWVRQAPGKGLEWVGMIHPSDSETRYNQKFKDRFTISVDKSKNTLYLQMNSLRAEDTAVYYCARGIYFYGTTYFDYWGQGTLVTVSS VL: DIQMTQSPSSLSASVGDRVTITCRASAAIAAYLAWYQQKPGKAPKLLIYSGSTLQSGVPSRFSGSGSGTDFTLTISSLQPEDFATYYCQQHNEYPLTFGQGTKVEIKR |
| 0.7 | 0.9 | – | ThrL53Ala variant IgG1 (antibody, V domains shown) VH: EVQLVESGGGLVQPGGSLRLSCAASGYSFTGHWMNWVRQAPGKGLEWVGMIHPSDSETRYNQKFKDRFTISVDKSKNTLYLQMNSLRAEDTAVYYCARGIYFYGTTYFDYWGQGTLVTVSS VL: DIQMTQSPSSLSASVGDRVTITCRASKTISKYLAWYQQKPGKAPKLLIYSGSALQSGVPSRFSGSGSGTDFTLTISSLQPEDFATYYCQQHNEYPLTFGQGTKVEIKR |
| 0.38 | – | – | H2C4 variant IgG1 (antibody, V domains shown) VH: EVQLVESGGGLVQPGGSLRLSCAASGYSFTGHWMNWVRQAPGKGLEWVGMIAPANSATRYNQKFKDRFTISVDKSKNTLYLQMNSLRAEDTAVYYCARGIYFYGTTYFDYWGQGTLVTVSS VL: DIQMTQSPSSLSASVGDRVTITCRASKTISKYLAWYQQKPGKAPKLLIYSGSTLQSGVPSRFSGSGSGTDFTLTISSLQPEDFATYYCQQHNEYPLTFGQGTKVEIK |
| – | 2.3 | – | ThrH100aAla variant IgG1 (antibody, V domains shown) VH: EVQLVESGGGLVQPGGSLRLSCAASGYSFTGHWMNWVRQAPGKGLEWVGMIHPSDSETRYNQKFKDRFTISVDKSKNTLYLQMNSLRAEDTAVYYCARGIYFYGATYFDYWGQGTLVTVSS VL: DIQMTQSPSSLSASVGDRVTITCRASKTISKYLAWYQQKPGKAPKLLIYSGSTLQSGVPSRFSGSGSGTDFTLTISSLQPEDFATYYCQQHNEYPLTFGQGTKVEIK |
| – | 1.4 | – | ThrH100bAla variant IgG1 (antibody, V domains shown) VH: EVQLVESGGGLVQPGGSLRLSCAASGYSFTGHWMNWVRQAPGKGLEWVGMIHPSDSETRYNQKFKDRFTISVDKSKNTLYLQMNSLRAEDTAVYYCARGIYFYGTAYFDYWGQGTLVTVSS VL: DIQMTQSPSSLSASVGDRVTITCRASKTISKYLAWYQQKPGKAPKLLIYSGSTLQSGVPSRFSGSGSGTDFTLTISSLQPEDFATYYCQQHNEYPLTFGQGTKVEIK |
| 0.21 | – | – | H2C6 variant IgG1 (antibody, V domains shown) VH: EVQLVESGGGLVQPGGSLRLSCAASGYSFTGHWMNWVRQAPGKGLEWVGMIAPANSQTRYNQKFKDRFTISVDKSKNTLYLQMNSLRAEDTAVYYCARGIYFYGTTYFDYWGQGTLVTVSS VL: DIQMTQSPSSLSASVGDRVTITCRASKTISKYLAWYQQKPGKAPKLLIYSGSTLQSGVPSRFSGSGSGTDFTLTISSLQPEDFATYYCQQHNEYPLTFGQGTKVEIK |
| – | 7.6 | – | TyrH100cAla variant IgG1 (antibody, V domains shown) VH: EVQLVESGGGLVQPGGSLRLSCAASGYSFTGHWMNWVRQAPGKGLEWVGMIHPSDSETRYNQKFKDRFTISVDKSKNTLYLQMNSLRAEDTAVYYCARGIYFYGTTAFDYWGQGTLVTVSS VL: DIQMTQSPSSLSASVGDRVTITCRASKTISKYLAWYQQKPGKAPKLLIYSGSTLQSGVPSRFSGSGSGTDFTLTISSLQPEDFATYYCQQHNEYPLTFGQGTKVEIK |
| – | 1.4 | – | TyrH99Ala variant IgG1 (antibody, V domains shown) VH: EVQLVESGGGLVQPGGSLRLSCAASGYSFTGHWMNWVRQAPGKGLEWVGMIHPSDSETRYNQKFKDRFTISVDKSKNTLYLQMNSLRAEDTAVYYCARGIYFAGTTYFDYWGQGTLVTVSS VL: DIQMTQSPSSLSASVGDRVTITCRASKTISKYLAWYQQKPGKAPKLLIYSGSTLQSGVPSRFSGSGSGTDFTLTISSLQPEDFATYYCQQHNEYPLTFGQGTKVEIK |
| – | – | 3.8 | AspH54Lys variant IgG1 (antibody, V domains shown) VH: EVQLVESGGGLVQPGGSLRLSCAASGYSFTGHWMNWVRQAPGKGLEWVGMIHPSKSETRYNQKFKDRFTISVDKSKNTLYLQMNSLRAEDTAVYYCARGIYFYGTTYFDYWGQGTLVTVSS VL: DIQMTQSPSSLSASVGDRVTITCRASKTISKYLAWYQQKPGKAPKLLIYSGSTLQSGVPSRFSGSGSGTDFTLTISSLQPEDFATYYCQQHNEYPLTFGQGTKVEIK |
| 0.021 | – | – | H2C14 variant IgG1 (antibody, V domains shown) VH: EVQLVESGGGLVQPGGSLRLSCAASGYSFTGHWMNWVRQAPGKGLEWVGMIAPASSATRYNQKFKDRFTISVDKSKNTLYLQMNSLRAEDTAVYYCARGIYFYGTTYFDYWGQGTLVTVSS VL: DIQMTQSPSSLSASVGDRVTITCRASKTISKYLAWYQQKPGKAPKLLIYSGSTLQSGVPSRFSGSGSGTDFTLTISSLQPEDFATYYCQQHNEYPLTFGQGTKVEIK |
| 13.3 | 1.1 | – | SerL52Ala variant IgG1 (antibody, V domains shown) VH: EVQLVESGGGLVQPGGSLRLSCAASGYSFTGHWMNWVRQAPGKGLEWVGMIHPSDSETRYNQKFKDRFTISVDKSKNTLYLQMNSLRAEDTAVYYCARGIYFYGTTYFDYWGQGTLVTVSS VL: DIQMTQSPSSLSASVGDRVTITCRASKTISKYLAWYQQKPGKAPKLLIYSGATLQSGVPSRFSGSGSGTDFTLTISSLQPEDFATYYCQQHNEYPLTFGQGTKVEIKR |
| – | 10.9 | – | TyrH97Ala variant IgG1 (antibody, V domains shown) VH: EVQLVESGGGLVQPGGSLRLSCAASGYSFTGHWMNWVRQAPGKGLEWVGMIHPSDSETRYNQKFKDRFTISVDKSKNTLYLQMNSLRAEDTAVYYCARGIAFYGTTYFDYWGQGTLVTVSS VL: DIQMTQSPSSLSASVGDRVTITCRASKTISKYLAWYQQKPGKAPKLLIYSGSTLQSGVPSRFSGSGSGTDFTLTISSLQPEDFATYYCQQHNEYPLTFGQGTKVEIK |
| 2.7 | 1.2 | – | SerL50Ala variant IgG1 (antibody, V domains shown) VH: EVQLVESGGGLVQPGGSLRLSCAASGYSFTGHWMNWVRQAPGKGLEWVGMIHPSDSETRYNQKFKDRFTISVDKSKNTLYLQMNSLRAEDTAVYYCARGIYFYGTTYFDYWGQGTLVTVSS VL: DIQMTQSPSSLSASVGDRVTITCRASKTISKYLAWYQQKPGKAPKLLIYAGSTLQSGVPSRFSGSGSGTDFTLTISSLQPEDFATYYCQQHNEYPLTFGQGTKVEIKR |
| – | – | 0.9 | AspH54Ser variant IgG1 (antibody, V domains shown) VH: EVQLVESGGGLVQPGGSLRLSCAASGYSFTGHWMNWVRQAPGKGLEWVGMIHPSSSETRYNQKFKDRFTISVDKSKNTLYLQMNSLRAEDTAVYYCARGIYFYGTTYFDYWGQGTLVTVSS VL: DIQMTQSPSSLSASVGDRVTITCRASKTISKYLAWYQQKPGKAPKLLIYSGSTLQSGVPSRFSGSGSGTDFTLTISSLQPEDFATYYCQQHNEYPLTFGQGTKVEIK |

— patent publication EP1516629B1
